Assay results published in PMC8606822, “Novel dTDP-L-Rhamnose Synthetic Enzymes (RmlABCD) From Saccharothrix syringae CGMCC 4.1716 for One-Pot Four-Enzyme Synthesis of dTDP-L-Rhamnose” (Frontiers in Microbiology, 2021).

Legend:
[1] = molecular target: T1, Ss-RmlD (Saccharothrix syringae, UniProt A0A5Q0HAF2); experiment: one-pot reaction with Ss-RmlABC; product yield by HPLC; format: biochemical; conditions: pH 8.5, 30 °C; dTDP-4-keto-rhamnose made in situ
T1 construct: gene rfbD
T1 sequence (A0A5Q0HAF2 1-297): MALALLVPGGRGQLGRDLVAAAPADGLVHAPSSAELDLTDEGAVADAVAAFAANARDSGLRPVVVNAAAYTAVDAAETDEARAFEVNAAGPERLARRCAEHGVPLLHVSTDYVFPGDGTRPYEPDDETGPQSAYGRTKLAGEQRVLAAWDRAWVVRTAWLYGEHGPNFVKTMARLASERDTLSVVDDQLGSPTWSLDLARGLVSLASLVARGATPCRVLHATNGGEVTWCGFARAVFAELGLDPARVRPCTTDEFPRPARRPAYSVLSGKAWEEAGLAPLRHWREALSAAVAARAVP

[2] = substrate: O=P(O)(O)O[C@H]1O[C@H](CO)[C@@H](O)[C@H](O)[C@H]1O; experiment: malachite green PPi release assay with inorganic pyrophosphatase; format: biochemical, Saccharothrix syringae; conditions: 1 mM dTTP, optimal conditions (37 °C, pH 9.0, 2.5 mM Mg2+)
[3] = substrate: Cc1cn([C@H]2C[C@H](O)[C@@H](COP(=O)(O)OP(=O)(O)OP(=O)(O)O)O2)c(=O)[nH]c1=O; experiment: as above; format: biochemical, Saccharothrix syringae; conditions: 1 mM Glc-1-P, optimal conditions (37 °C, pH 9.0, 2.5 mM Mg2+)
[4] = substrate: Cc1cn([C@H]2C[C@H](O)[C@@H](COP(=O)(O)OP(=O)(O)O[C@H]3O[C@H](CO)[C@@H](O)[C@H](O)[C@H]3O)O2)c(=O)[nH]c1=O; experiment: purified protein; format: biochemical, Saccharothrix syringae; conditions: optimal conditions (50 °C, pH 7.5, 0.02 mM NAD+)

With NC(=O)C1=CN([C@@H]2O[C@H](COP(=O)(O)OP(=O)(O)OC[C@H]3O[C@@H](n4cnc5c(N)ncnc54)[C@H](OP(=O)(O)O)[C@@H]3O)[C@@H](O)[C@H]2O)C=CC1 [NADPH] the “one-pot reaction with Ss-RmlABC; product yield by HPLC” value [1] was “NADPH was an essential cofactor for the final step of reduction catalyzed by Ss-RmlD”.

B1: Ss-RmlA (Saccharothrix syringae) (protein)
chain: MKGIILAGGSGTRLHPITQAVSKQLLPVYDKPMVYYPLSVLMLAGIREILLISTPTDLPLFRRLLGDGSQFGLSVSYAEQAQPNGLAEAFVIGADFVGDDDVSLVLGDNIFYGQGFSRLLQHHAATLDGCVLFGYPVKDPERYGVGEVDATGRLVSIEEKPAAPKSNKAITGLYFYDNQVVDIARNLRPSARGELEITDVNLTYLRQGRAHLVDLGRGFAWLDTGTHDSLLEAGQFVQVLEHRQGVRIACPEEIALRMGFITADECYALGEKLAKSGYGQYVMYVAREVR
Work on B1 yielded a Km [2] of 117.30 µM, a kcat [2] of 3.46 s⁻¹ and a Km [3] of 49.56 µM. It also gave a kcat [3] of 5.39 s⁻¹.

B2: Ss-RmlB (Saccharothrix syringae) (protein)
chain: MRVLVTGGAGFIGSHYVRELVGGSYPAYADAEVVVLDKLTYAGNEANLAPVADSPRLTFVRGDICDRELVVGVMRGVDVVVHFAAESHVDRSITGSADFVLTNVLGTQVLLQAALEAGVAKFVHVSTDEVYGSIAEGSWTEDHVLEPNSPYSASKASSDLLARAFHRTHGLPVCVTRCSNNYGPYQFPEKVIPLFVTNLVDGRKVPLYGDGLNVRDWLHVDDHCRGIQLVLEGGRGGEIYNIGGGTELTNRELTARLLEATGRDWDSFVEPVEDRKGHDRRYSVDITKISTELGYAPRVDFAEGLAATVRWYRENRAWWEPLKQRAALTG
Molecule B2 has a Km [4] of 98.60 µM and a kcat [4] of 11.2 s⁻¹.
